These results are taken from US20190077863A1 (AERPIO PHARMACEUTICALS, published 2019).

The target in experiment [1] is T1, Cynomolgus VE-PTP (Cyno PTP-β) containing first eight FN3 repeats with C-terminal His10 tag (Cyno Beta ½ … (cynomolgus, UniProt P23467 25-817 (human entry))).
T1 construct: Produced in HEK293 cells; it was not cut off; also called Cyno VE-PTP
T1 chain: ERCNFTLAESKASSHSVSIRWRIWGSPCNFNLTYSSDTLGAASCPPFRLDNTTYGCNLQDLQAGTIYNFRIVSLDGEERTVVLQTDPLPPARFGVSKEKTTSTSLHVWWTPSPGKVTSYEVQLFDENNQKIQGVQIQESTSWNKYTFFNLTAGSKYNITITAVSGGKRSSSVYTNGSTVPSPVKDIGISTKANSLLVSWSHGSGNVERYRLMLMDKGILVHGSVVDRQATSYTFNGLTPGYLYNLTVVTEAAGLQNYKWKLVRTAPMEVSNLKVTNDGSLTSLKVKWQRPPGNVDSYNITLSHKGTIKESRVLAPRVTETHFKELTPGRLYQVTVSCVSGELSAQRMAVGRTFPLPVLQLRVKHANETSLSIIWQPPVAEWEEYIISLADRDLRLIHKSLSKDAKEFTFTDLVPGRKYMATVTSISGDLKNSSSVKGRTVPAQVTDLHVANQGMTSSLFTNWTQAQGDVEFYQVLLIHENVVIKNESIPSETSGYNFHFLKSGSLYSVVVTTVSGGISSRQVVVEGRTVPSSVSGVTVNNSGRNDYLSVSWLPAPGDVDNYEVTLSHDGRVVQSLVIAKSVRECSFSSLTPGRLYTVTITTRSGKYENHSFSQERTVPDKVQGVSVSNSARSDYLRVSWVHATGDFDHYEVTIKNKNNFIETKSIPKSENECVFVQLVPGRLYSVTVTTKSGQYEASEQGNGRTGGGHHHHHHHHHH
Kind of experiment: ELISA, coated antigen. The method, then: (§1) HPTP-β, cyno PTP-β, and HPTP-η proteins were coated onto ELISA plates in coating buffer (pH 9.4). Each protein was prepared as a 1 μg/mL protein stock in 50 mM carbonate-bicarbonate. The coated proteins were aliquoted at a volume of 100 μL/well into sterile, clear, polystyrene, flat bottom 96-well plates. The plates were incubated overnight at 4° C. After overnight incubation, the plates were washed 3× with 200 μL/well of 1×PBS-T (PBS with 0.05% Tween 20). The immunizing protein was human VE-PTP (HPTP-β). The plates were then blocked with 200 μL/well of 5% blotting grade blocker non-fat dry milk in PBS-T and incubated for 1 hr at room temperature.
(§2) Primary antibody samples were prepared for the humanized variants and the negative control, anti-hCD20-hIgG4S228P, using 1 μg/well in 5% blotting grade blocker non-fat dry milk in PBS. Samples were tested in triplicates. The Fab antibody fragments were treated as the IgG antibodies. The plates were then washed 3× with PBS-T and 100 μL of primary antibody preparation was added in each well. The plates were then incubated for 1 hr at room temperature.
(§3) Then, […] Ultra TMB-ELISA was added in each well, and the plate was allowed to develop for 5 min at room temperature. After 5 min, 50 μL of 2 M sulfuric acid was added to each well to stop the reaction. The plates were then analyzed on a plate reader at an absorbance wavelength of 450 nm.
Background: ELISA stands for enzyme-linked immunosorbent assay.

The target of experiment [2] is T2, Human HPTP-η with C-terminal His10 tag (Human HPTP-η ECD) (human, UniProt Q12913 36-975).
T2 construct: Produced in HEK293 cells; it was not cut off; also called Human PTPη; human PTP-η
T2 sequence: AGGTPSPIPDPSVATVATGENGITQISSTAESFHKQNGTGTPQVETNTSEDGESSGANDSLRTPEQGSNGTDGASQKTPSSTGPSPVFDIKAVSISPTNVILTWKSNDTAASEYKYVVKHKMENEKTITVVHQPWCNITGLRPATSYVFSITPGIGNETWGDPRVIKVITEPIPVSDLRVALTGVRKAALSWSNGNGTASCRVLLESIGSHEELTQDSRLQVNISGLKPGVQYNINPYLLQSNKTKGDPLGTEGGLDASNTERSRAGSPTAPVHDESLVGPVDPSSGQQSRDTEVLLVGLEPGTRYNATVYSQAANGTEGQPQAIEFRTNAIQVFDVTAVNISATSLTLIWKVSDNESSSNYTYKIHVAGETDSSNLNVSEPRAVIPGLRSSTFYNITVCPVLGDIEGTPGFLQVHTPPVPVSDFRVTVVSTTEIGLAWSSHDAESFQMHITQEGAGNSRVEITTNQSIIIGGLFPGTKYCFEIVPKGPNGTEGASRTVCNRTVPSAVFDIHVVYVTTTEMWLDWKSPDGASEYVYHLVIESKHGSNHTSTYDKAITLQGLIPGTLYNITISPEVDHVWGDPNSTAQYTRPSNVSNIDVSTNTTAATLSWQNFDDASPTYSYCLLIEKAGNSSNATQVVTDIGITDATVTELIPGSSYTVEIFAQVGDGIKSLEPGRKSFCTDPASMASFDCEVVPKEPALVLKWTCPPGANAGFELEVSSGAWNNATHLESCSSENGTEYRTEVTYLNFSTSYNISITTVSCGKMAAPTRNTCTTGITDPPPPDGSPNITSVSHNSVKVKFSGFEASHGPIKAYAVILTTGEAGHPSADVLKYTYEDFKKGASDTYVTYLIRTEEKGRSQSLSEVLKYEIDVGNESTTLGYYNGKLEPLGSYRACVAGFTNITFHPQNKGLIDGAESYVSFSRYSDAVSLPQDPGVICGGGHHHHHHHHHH
Kind of experiment: ELISA, coated antigen. Here is the method:
as §1, §2, §3

The target of experiment [3] is T3, VEGFR2 (human, UniProt P35968 20-1356).
T3 construct: Named only as 'VEGFR2; (R2/T2)' in the immunoprecipitation experiment with HUVECs
T3 sequence (P35968 20-1356 limits assumed): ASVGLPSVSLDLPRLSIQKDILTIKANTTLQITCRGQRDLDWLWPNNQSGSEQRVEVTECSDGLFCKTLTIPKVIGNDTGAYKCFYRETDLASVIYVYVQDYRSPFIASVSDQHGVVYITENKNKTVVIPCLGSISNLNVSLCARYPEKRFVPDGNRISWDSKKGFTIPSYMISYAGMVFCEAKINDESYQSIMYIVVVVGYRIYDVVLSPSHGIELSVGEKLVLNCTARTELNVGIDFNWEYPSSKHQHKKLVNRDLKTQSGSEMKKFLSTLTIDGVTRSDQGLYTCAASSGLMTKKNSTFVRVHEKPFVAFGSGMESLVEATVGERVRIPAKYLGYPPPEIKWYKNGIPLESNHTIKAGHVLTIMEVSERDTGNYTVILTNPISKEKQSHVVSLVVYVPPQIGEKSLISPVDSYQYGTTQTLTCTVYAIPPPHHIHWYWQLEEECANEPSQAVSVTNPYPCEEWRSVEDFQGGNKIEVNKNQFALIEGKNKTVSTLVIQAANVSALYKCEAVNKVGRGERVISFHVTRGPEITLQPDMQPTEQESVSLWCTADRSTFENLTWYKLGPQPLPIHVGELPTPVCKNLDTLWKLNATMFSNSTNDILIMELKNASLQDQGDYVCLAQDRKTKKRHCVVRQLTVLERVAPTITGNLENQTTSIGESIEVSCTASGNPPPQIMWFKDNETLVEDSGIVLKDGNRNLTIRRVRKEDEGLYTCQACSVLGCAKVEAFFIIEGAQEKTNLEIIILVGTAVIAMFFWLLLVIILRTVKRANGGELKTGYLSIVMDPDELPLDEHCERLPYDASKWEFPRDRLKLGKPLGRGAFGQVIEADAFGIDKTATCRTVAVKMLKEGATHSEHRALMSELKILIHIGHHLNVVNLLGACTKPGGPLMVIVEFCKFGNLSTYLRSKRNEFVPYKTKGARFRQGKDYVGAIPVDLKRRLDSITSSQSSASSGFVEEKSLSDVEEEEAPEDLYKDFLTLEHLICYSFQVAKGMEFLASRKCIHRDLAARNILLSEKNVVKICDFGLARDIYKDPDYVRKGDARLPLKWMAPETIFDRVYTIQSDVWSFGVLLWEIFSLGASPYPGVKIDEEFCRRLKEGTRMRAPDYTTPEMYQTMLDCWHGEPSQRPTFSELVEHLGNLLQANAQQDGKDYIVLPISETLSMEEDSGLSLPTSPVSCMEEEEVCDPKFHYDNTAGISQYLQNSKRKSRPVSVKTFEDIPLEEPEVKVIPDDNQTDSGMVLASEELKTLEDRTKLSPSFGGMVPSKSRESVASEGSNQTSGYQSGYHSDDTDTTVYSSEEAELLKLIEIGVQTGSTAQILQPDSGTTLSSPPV
Nature of the experiment: immunoprecipitation western blot, HUVECs. Background: In western blotting, separated proteins are transferred to a membrane and probed.

For experiment [4], the target named is T4, Tie2 (human, UniProt Q02763 23-1124).
T4 construct: Named only as 'Tie2 (R2/T2)' in the immunoprecipitation experiment with HUVECs; also called T2
T4 sequence (Q02763 23-1124 limits assumed): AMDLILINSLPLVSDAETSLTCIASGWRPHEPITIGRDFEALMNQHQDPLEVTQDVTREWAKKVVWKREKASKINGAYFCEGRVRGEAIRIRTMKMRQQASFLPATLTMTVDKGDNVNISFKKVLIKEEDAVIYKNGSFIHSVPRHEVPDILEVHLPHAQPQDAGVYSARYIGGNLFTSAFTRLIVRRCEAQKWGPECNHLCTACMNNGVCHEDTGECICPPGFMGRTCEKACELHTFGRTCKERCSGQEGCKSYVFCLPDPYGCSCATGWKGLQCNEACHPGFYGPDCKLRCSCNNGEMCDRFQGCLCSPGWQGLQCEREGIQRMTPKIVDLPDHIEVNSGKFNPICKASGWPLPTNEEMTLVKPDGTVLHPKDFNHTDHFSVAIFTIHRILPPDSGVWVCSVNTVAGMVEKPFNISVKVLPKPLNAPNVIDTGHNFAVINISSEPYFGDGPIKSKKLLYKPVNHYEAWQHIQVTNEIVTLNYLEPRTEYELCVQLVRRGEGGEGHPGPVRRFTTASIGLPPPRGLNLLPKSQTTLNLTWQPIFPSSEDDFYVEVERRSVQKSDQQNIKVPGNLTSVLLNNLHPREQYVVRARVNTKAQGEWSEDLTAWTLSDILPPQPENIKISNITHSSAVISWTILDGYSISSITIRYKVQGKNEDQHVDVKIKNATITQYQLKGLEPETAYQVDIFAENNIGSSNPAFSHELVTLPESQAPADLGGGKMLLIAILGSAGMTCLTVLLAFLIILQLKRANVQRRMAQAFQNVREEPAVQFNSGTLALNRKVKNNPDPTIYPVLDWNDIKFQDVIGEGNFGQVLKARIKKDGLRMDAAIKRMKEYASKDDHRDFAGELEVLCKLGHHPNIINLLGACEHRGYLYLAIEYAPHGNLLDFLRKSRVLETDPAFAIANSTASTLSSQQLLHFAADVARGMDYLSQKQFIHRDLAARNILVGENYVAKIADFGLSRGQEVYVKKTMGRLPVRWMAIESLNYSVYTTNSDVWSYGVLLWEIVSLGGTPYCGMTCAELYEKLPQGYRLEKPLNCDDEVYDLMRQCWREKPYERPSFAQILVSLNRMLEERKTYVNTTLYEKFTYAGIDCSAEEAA
Kind of experiment: immunoprecipitation western blot, HUVECs.

Experiment [5] deals with T5, Human VE-PTP (HPTP-β) containing first eight FN3 repeats with C-terminal His6 tag (Human ½ VE-PTP ECD) (human, UniProt P23467 23-820).
T5 construct: Produced in HEK293 cells and purified by the His tag; it was not cut off; also called Human Beta ½ ECD
T5 sequence: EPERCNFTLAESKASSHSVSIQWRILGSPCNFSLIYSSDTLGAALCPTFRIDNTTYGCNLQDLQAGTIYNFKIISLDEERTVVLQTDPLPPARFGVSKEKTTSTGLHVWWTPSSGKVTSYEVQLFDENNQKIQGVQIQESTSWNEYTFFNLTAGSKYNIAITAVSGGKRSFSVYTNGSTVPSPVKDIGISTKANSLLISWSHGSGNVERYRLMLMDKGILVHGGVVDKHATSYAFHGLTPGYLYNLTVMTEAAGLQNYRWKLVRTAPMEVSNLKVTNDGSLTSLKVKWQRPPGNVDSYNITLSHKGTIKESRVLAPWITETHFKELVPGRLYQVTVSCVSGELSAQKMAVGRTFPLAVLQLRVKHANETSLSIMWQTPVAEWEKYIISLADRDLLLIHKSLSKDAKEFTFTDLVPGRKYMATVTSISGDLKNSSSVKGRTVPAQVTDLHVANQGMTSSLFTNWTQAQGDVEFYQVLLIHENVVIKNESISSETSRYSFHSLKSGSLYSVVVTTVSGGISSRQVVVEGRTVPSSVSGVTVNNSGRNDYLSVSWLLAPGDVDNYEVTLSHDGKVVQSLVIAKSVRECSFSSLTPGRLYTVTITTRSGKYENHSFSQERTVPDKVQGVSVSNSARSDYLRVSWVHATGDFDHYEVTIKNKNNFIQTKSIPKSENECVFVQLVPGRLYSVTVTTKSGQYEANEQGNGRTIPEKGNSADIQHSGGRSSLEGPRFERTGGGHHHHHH
Nature of the experiment: ELISA, antigen coated at 1 µg/mL, antibody 1 µg/well. Here is the method:
as §1, §2, §3

B1: murine monoclonal antibody R15E6 (antibody, V domains shown)
VH: EVQLVETGGGLVQPKGSMKLSCAASGFTFNANAMNWIRQAPGKGLEWVARIRTKSNNYATYYAGSVKDRFTISRDDAQNMLYLQMNDLKTEDTAMYYCVRDYYGSSAWITYWGQGTLVTVSA
VL: DIVMTQSHKFMSTSVGDRVSITCKASQHVGTAVAWYQQKPDQSPKQLIYWASTRHTGVPDRFTGSGSGTDFTLTISNVQSEDLADYFCQQYSSYPFTFGSGTKLEIK
notes: Murine monoclonal antibody of hybridoma ATCC PTA-7580, 150 kDa; also called Parental; parental antibody
Regarding B1, the binding result in experiment [1] is reported as “no binding (tested: <=0.2; 1 µg/well)”; in experiment [2], “no binding (tested: <=0.2; 1 µg/well)”; in experiment [3], “no binding”; in experiment [4], “no binding”. In addition, the “ELISA value (absorbance at 450 nm)” value in experiment [5] came out at 2.43.
